# T1: FcγRIIa H (FcγRIIa type H, His at position 131), extracellular domain with C-terminal His tag (human, UniProt P12318 34-217)
# T1 construct: extracellular domain; also called FcgRIIa H; 2aH
# T1 sequence (looked up): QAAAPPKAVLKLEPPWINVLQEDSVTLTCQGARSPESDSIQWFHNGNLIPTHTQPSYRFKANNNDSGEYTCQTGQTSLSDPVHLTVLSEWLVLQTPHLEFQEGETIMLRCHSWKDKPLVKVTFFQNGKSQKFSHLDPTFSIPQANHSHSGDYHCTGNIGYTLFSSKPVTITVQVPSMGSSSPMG
# Biological target: T1, FcγRIIa H (FcγRIIa type H, His at …)
# Experiment: SPR Biacore, relative binding, GpH7-B3/GpL16-k0 (HoCon Ab)=100
# Procedure: Analysis of interaction between objective antibody and the FcγR was carried out using Biacore T100 (GE Healthcare). HBS-EP+ (GE Healthcare) was used as the running buffer, and the measurement temperature was set to 25° C. Chips produced by immobilizing the antigen peptide by the amine coupling method to a Series S Sencor Chip CM5 (GE Healthcare), or alternatively, chips produced by allowing preliminarily biotinylated antigen peptides to interact with and immobilize onto a Series S Sensor Chip SA (certified) (GE Healthcare) were used. Antibodies of interest were captured onto an antigen peptide-immobilized chip, and allowed to interact to each FcγR diluted with running buffer. To regenerate and repeatedly use the chip, the antibodies captured on the chip were washed off by reacting 10 mM glycine-HCl, pH 1.5.
row,Binder,Ho/Con_2aH
1,"GpH7-B3 variant I332_15Y/GpL16-k0 (antibody, human IgG1, kappa, both H chains mutated; also called Ho Ab) heavy: not shown light: DIVMTQSPLSLPVTPGEPASISCQASESLVHSNRNTYLHWYLQKPGQSPQLLIYKVSNRFSGVPDRFSGSGSGTDFTLKISRVEAEDVGVYYCSQNTHVPPTFGQGTKVEIERTVAAPSVFIFPPSDEQLKSGTASVVCLLNNFYPREAKVQWKVDNALQSGNSQESVTEQDSKDSTYSLSSTLTLSKADYEKHKVYACEVTHQGLSSPVTKSFNRGEC",126 % of control
2,"GpH7-B3 variant K326_09D/GpL16-k0 (antibody, human IgG1, kappa, both H chains mutated; also called Ho Ab) heavy: not shown light: DIVMTQSPLSLPVTPGEPASISCQASESLVHSNRNTYLHWYLQKPGQSPQLLIYKVSNRFSGVPDRFSGSGSGTDFTLKISRVEAEDVGVYYCSQNTHVPPTFGQGTKVEIERTVAAPSVFIFPPSDEQLKSGTASVVCLLNNFYPREAKVQWKVDNALQSGNSQESVTEQDSKDSTYSLSSTLTLSKADYEKHKVYACEVTHQGLSSPVTKSFNRGEC",113 % of control
3,"GpH7-B3 variant K326_19Q/GpL16-k0 (antibody, human IgG1, kappa, both H chains mutated; also called Ho Ab) heavy: not shown light: DIVMTQSPLSLPVTPGEPASISCQASESLVHSNRNTYLHWYLQKPGQSPQLLIYKVSNRFSGVPDRFSGSGSGTDFTLKISRVEAEDVGVYYCSQNTHVPPTFGQGTKVEIERTVAAPSVFIFPPSDEQLKSGTASVVCLLNNFYPREAKVQWKVDNALQSGNSQESVTEQDSKDSTYSLSSTLTLSKADYEKHKVYACEVTHQGLSSPVTKSFNRGEC",100 % of control
4,"GpH7-B3 variant I332_16H/GpL16-k0 (antibody, human IgG1, kappa, both H chains mutated; also called Ho Ab) heavy: not shown light: DIVMTQSPLSLPVTPGEPASISCQASESLVHSNRNTYLHWYLQKPGQSPQLLIYKVSNRFSGVPDRFSGSGSGTDFTLKISRVEAEDVGVYYCSQNTHVPPTFGQGTKVEIERTVAAPSVFIFPPSDEQLKSGTASVVCLLNNFYPREAKVQWKVDNALQSGNSQESVTEQDSKDSTYSLSSTLTLSKADYEKHKVYACEVTHQGLSSPVTKSFNRGEC",119 % of control
5,"GpH7-B3 variant K334_08L/GpL16-k0 (antibody, human IgG1, kappa, both H chains mutated; also called Ho Ab) heavy: not shown light: DIVMTQSPLSLPVTPGEPASISCQASESLVHSNRNTYLHWYLQKPGQSPQLLIYKVSNRFSGVPDRFSGSGSGTDFTLKISRVEAEDVGVYYCSQNTHVPPTFGQGTKVEIERTVAAPSVFIFPPSDEQLKSGTASVVCLLNNFYPREAKVQWKVDNALQSGNSQESVTEQDSKDSTYSLSSTLTLSKADYEKHKVYACEVTHQGLSSPVTKSFNRGEC",103 % of control
6,"GpH7-B3 variant K326_10E/GpL16-k0 (antibody, human IgG1, kappa, both H chains mutated; also called Ho Ab) heavy: not shown light: DIVMTQSPLSLPVTPGEPASISCQASESLVHSNRNTYLHWYLQKPGQSPQLLIYKVSNRFSGVPDRFSGSGSGTDFTLKISRVEAEDVGVYYCSQNTHVPPTFGQGTKVEIERTVAAPSVFIFPPSDEQLKSGTASVVCLLNNFYPREAKVQWKVDNALQSGNSQESVTEQDSKDSTYSLSSTLTLSKADYEKHKVYACEVTHQGLSSPVTKSFNRGEC",101 % of control
7,"GpH7-B3 variant I336_06M/GpL16-k0 (antibody, human IgG1, kappa, both H chains mutated; also called Ho Ab) heavy: not shown light: DIVMTQSPLSLPVTPGEPASISCQASESLVHSNRNTYLHWYLQKPGQSPQLLIYKVSNRFSGVPDRFSGSGSGTDFTLKISRVEAEDVGVYYCSQNTHVPPTFGQGTKVEIERTVAAPSVFIFPPSDEQLKSGTASVVCLLNNFYPREAKVQWKVDNALQSGNSQESVTEQDSKDSTYSLSSTLTLSKADYEKHKVYACEVTHQGLSSPVTKSFNRGEC",100 % of control
8,"GpH7-B3 variant K334_03V/GpL16-k0 (antibody, human IgG1, kappa, both H chains mutated; also called Ho Ab) heavy: not shown light: DIVMTQSPLSLPVTPGEPASISCQASESLVHSNRNTYLHWYLQKPGQSPQLLIYKVSNRFSGVPDRFSGSGSGTDFTLKISRVEAEDVGVYYCSQNTHVPPTFGQGTKVEIERTVAAPSVFIFPPSDEQLKSGTASVVCLLNNFYPREAKVQWKVDNALQSGNSQESVTEQDSKDSTYSLSSTLTLSKADYEKHKVYACEVTHQGLSSPVTKSFNRGEC",111 % of control
9,"GpH7-B3 variant I332_10E/GpL16-k0 (antibody, human IgG1, kappa, both H chains mutated; also called Ho Ab) heavy: not shown light: DIVMTQSPLSLPVTPGEPASISCQASESLVHSNRNTYLHWYLQKPGQSPQLLIYKVSNRFSGVPDRFSGSGSGTDFTLKISRVEAEDVGVYYCSQNTHVPPTFGQGTKVEIERTVAAPSVFIFPPSDEQLKSGTASVVCLLNNFYPREAKVQWKVDNALQSGNSQESVTEQDSKDSTYSLSSTLTLSKADYEKHKVYACEVTHQGLSSPVTKSFNRGEC",117 % of control
10,"GpH7-B3 variant K326_06M/GpL16-k0 (antibody, human IgG1, kappa, both H chains mutated; also called Ho Ab) heavy: not shown light: DIVMTQSPLSLPVTPGEPASISCQASESLVHSNRNTYLHWYLQKPGQSPQLLIYKVSNRFSGVPDRFSGSGSGTDFTLKISRVEAEDVGVYYCSQNTHVPPTFGQGTKVEIERTVAAPSVFIFPPSDEQLKSGTASVVCLLNNFYPREAKVQWKVDNALQSGNSQESVTEQDSKDSTYSLSSTLTLSKADYEKHKVYACEVTHQGLSSPVTKSFNRGEC",101 % of control

# More lines, now with the values ahead:
row,Ho/Con_2aH,Binder
1,111 % of control,"GpH7-B3 variant I332_04F/GpL16-k0 (antibody, human IgG1, kappa, both H chains mutated; also called Ho Ab) heavy: not shown light: DIVMTQSPLSLPVTPGEPASISCQASESLVHSNRNTYLHWYLQKPGQSPQLLIYKVSNRFSGVPDRFSGSGSGTDFTLKISRVEAEDVGVYYCSQNTHVPPTFGQGTKVEIERTVAAPSVFIFPPSDEQLKSGTASVVCLLNNFYPREAKVQWKVDNALQSGNSQESVTEQDSKDSTYSLSSTLTLSKADYEKHKVYACEVTHQGLSSPVTKSFNRGEC"
2,103 % of control,"GpH7-B3 variant K334_04F/GpL16-k0 (antibody, human IgG1, kappa, both H chains mutated; also called Ho Ab) heavy: not shown light: DIVMTQSPLSLPVTPGEPASISCQASESLVHSNRNTYLHWYLQKPGQSPQLLIYKVSNRFSGVPDRFSGSGSGTDFTLKISRVEAEDVGVYYCSQNTHVPPTFGQGTKVEIERTVAAPSVFIFPPSDEQLKSGTASVVCLLNNFYPREAKVQWKVDNALQSGNSQESVTEQDSKDSTYSLSSTLTLSKADYEKHKVYACEVTHQGLSSPVTKSFNRGEC"
3,125 % of control,"GpH7-B3 variant I332_14T/GpL16-k0 (antibody, human IgG1, kappa, both H chains mutated; also called Ho Ab) heavy: not shown light: DIVMTQSPLSLPVTPGEPASISCQASESLVHSNRNTYLHWYLQKPGQSPQLLIYKVSNRFSGVPDRFSGSGSGTDFTLKISRVEAEDVGVYYCSQNTHVPPTFGQGTKVEIERTVAAPSVFIFPPSDEQLKSGTASVVCLLNNFYPREAKVQWKVDNALQSGNSQESVTEQDSKDSTYSLSSTLTLSKADYEKHKVYACEVTHQGLSSPVTKSFNRGEC"
4,116 % of control,"GpH7-B3 variant K334_07[ (read as K334_07I)/GpL16-k0 (antibody, human IgG1, kappa, both H chains mutated; also called Ho Ab) heavy: not shown light: DIVMTQSPLSLPVTPGEPASISCQASESLVHSNRNTYLHWYLQKPGQSPQLLIYKVSNRFSGVPDRFSGSGSGTDFTLKISRVEAEDVGVYYCSQNTHVPPTFGQGTKVEIERTVAAPSVFIFPPSDEQLKSGTASVVCLLNNFYPREAKVQWKVDNALQSGNSQESVTEQDSKDSTYSLSSTLTLSKADYEKHKVYACEVTHQGLSSPVTKSFNRGEC"
5,118 % of control,"GpH7-B3 variant K326_14T/GpL16-k0 (antibody, human IgG1, kappa, both H chains mutated; also called Ho Ab) heavy: not shown light: DIVMTQSPLSLPVTPGEPASISCQASESLVHSNRNTYLHWYLQKPGQSPQLLIYKVSNRFSGVPDRFSGSGSGTDFTLKISRVEAEDVGVYYCSQNTHVPPTFGQGTKVEIERTVAAPSVFIFPPSDEQLKSGTASVVCLLNNFYPREAKVQWKVDNALQSGNSQESVTEQDSKDSTYSLSSTLTLSKADYEKHKVYACEVTHQGLSSPVTKSFNRGEC"
6,114 % of control,"GpH7-B3 variant I332_19Q/GpL16-k0 (antibody, human IgG1, kappa, both H chains mutated; also called Ho Ab) heavy: not shown light: DIVMTQSPLSLPVTPGEPASISCQASESLVHSNRNTYLHWYLQKPGQSPQLLIYKVSNRFSGVPDRFSGSGSGTDFTLKISRVEAEDVGVYYCSQNTHVPPTFGQGTKVEIERTVAAPSVFIFPPSDEQLKSGTASVVCLLNNFYPREAKVQWKVDNALQSGNSQESVTEQDSKDSTYSLSSTLTLSKADYEKHKVYACEVTHQGLSSPVTKSFNRGEC"
7,130 % of control,"GpH7-B3 variant I332_09D/GpL16-k0 (antibody, human IgG1, kappa, both H chains mutated; also called Ho Ab) heavy: not shown light: DIVMTQSPLSLPVTPGEPASISCQASESLVHSNRNTYLHWYLQKPGQSPQLLIYKVSNRFSGVPDRFSGSGSGTDFTLKISRVEAEDVGVYYCSQNTHVPPTFGQGTKVEIERTVAAPSVFIFPPSDEQLKSGTASVVCLLNNFYPREAKVQWKVDNALQSGNSQESVTEQDSKDSTYSLSSTLTLSKADYEKHKVYACEVTHQGLSSPVTKSFNRGEC"
8,121 % of control,"GpH7-B3 variant I332_13S/GpL16-k0 (antibody, human IgG1, kappa, both H chains mutated; also called Ho Ab) heavy: not shown light: DIVMTQSPLSLPVTPGEPASISCQASESLVHSNRNTYLHWYLQKPGQSPQLLIYKVSNRFSGVPDRFSGSGSGTDFTLKISRVEAEDVGVYYCSQNTHVPPTFGQGTKVEIERTVAAPSVFIFPPSDEQLKSGTASVVCLLNNFYPREAKVQWKVDNALQSGNSQESVTEQDSKDSTYSLSSTLTLSKADYEKHKVYACEVTHQGLSSPVTKSFNRGEC"
9,118 % of control,"GpH7-B3 variant I332_18N/GpL16-k0 (antibody, human IgG1, kappa, both H chains mutated; also called Ho Ab) heavy: not shown light: DIVMTQSPLSLPVTPGEPASISCQASESLVHSNRNTYLHWYLQKPGQSPQLLIYKVSNRFSGVPDRFSGSGSGTDFTLKISRVEAEDVGVYYCSQNTHVPPTFGQGTKVEIERTVAAPSVFIFPPSDEQLKSGTASVVCLLNNFYPREAKVQWKVDNALQSGNSQESVTEQDSKDSTYSLSSTLTLSKADYEKHKVYACEVTHQGLSSPVTKSFNRGEC"
10,101 % of control,"GpH7-B3 variant I336_08L/GpL16-k0 (antibody, human IgG1, kappa, both H chains mutated; also called Ho Ab) heavy: not shown light: DIVMTQSPLSLPVTPGEPASISCQASESLVHSNRNTYLHWYLQKPGQSPQLLIYKVSNRFSGVPDRFSGSGSGTDFTLKISRVEAEDVGVYYCSQNTHVPPTFGQGTKVEIERTVAAPSVFIFPPSDEQLKSGTASVVCLLNNFYPREAKVQWKVDNALQSGNSQESVTEQDSKDSTYSLSSTLTLSKADYEKHKVYACEVTHQGLSSPVTKSFNRGEC"
11,114 % of control,"GpH7-B3 variant I332_06M/GpL16-k0 (antibody, human IgG1, kappa, both H chains mutated; also called Ho Ab) heavy: not shown light: DIVMTQSPLSLPVTPGEPASISCQASESLVHSNRNTYLHWYLQKPGQSPQLLIYKVSNRFSGVPDRFSGSGSGTDFTLKISRVEAEDVGVYYCSQNTHVPPTFGQGTKVEIERTVAAPSVFIFPPSDEQLKSGTASVVCLLNNFYPREAKVQWKVDNALQSGNSQESVTEQDSKDSTYSLSSTLTLSKADYEKHKVYACEVTHQGLSSPVTKSFNRGEC"

# From patent US20150344570A1 (published 2015)
